Measurements as given in article PMC3946203, “Specificity of ε and Non-ε Isoforms of Arabidopsis 14-3-3 Proteins Towards the H^+-ATPase and Other Targets” (PLoS ONE, 2014).
Where no end group is shown, it is not given here. [ ]: non-standard residue; d: D form. The star is where a group is joined. Biotin = O=C1N[C@H]2[C@H](CS[C@H]2CCCCC(=O)*)N1; pT = C[C@@H](OP(=O)(O)O)[C@H](N)C(=O)O

B1: bL15Vp peptide (peptide)
peptide: Biotin-LKGLDIDTIQQNY[pT]V
notes: last 15 amino acids of the maize plasma membrane H+-ATPase isoform 2 (MHA2); also called phosphorylated biotinyl-peptide reproducing the last 15 residues of the MHA2 H+-ATPase; source: synthetic peptide (Neosystem, Strasbourg)
B2: GF14εN211G (natural protein, Arabidopsis, UniProt P48347 1-254, looked up)
chain: MENEREKQVYLAKLSEQTERYDEMVEAMKKVAQLDVELTVEERNLVSVGYKNVIGARRASWRILSSIEQKEESKGNDENVKRLKNYRKRVEDELAKVCNDILSVIDKHLIPSSNAVESTVFFYKMKGDYYRYLAEFSSGAERKEAADQSLEAYKAAVAAAENGLAPTHPVRLGLALNFSVFYYEILNSPESACQLAKQAFDDAIAELDSLGEESYKDSTLIMQLLRDNLTLWTSDLNEEGDERTKGADEPQDEN
modifications: 32P-phosphate on the phosphorylation site at the junction between GST and the cloned protein (bead binding assay)
notes: GF14 epsilon, Arabidopsis, At1g22300, Asn211 changed into Gly; also called GF14ε loop 8 mutant; source: E. coli BL21(DE3), GST fusion (pGEX-2TK)

Experiments:
Details in all cases: both partners purified
GF14ωG213N = target: T1, GF14ωG213N (Arabidopsis, UniProt Q01525 1-259, G213N, 32P-phosphate on the phosphorylation site at the junction between GST and the cloned protein (bead binding assay)); assay: pull-down; bL15Vp on streptavidin-agarose magnetic beads; 0.1 nmol 32P-labeled GF14 wild type or loop 8 mutant in buffer HT with 5 mM Mg2+; FC not told for this experiment
T1 construct: GF14 omega, Arabidopsis, At1g78300, Gly213 changed into Asn; also called GF14ω loop 8 mutant; source: E. coli BL21(DE3), GST fusion (pGEX-2TK)
T1 sequence (looked up): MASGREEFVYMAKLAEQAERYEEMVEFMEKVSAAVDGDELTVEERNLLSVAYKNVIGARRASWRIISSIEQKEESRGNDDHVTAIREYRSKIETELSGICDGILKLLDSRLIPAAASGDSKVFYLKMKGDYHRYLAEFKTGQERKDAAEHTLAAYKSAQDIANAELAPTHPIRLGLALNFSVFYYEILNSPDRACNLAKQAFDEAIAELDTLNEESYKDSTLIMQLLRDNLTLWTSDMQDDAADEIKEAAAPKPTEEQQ

GF14λ = target: T2, GF14λ (Arabidopsis, UniProt P48349 1-248, 32P-phosphate on the phosphorylation site at the junction between GST and the cloned protein (overlay and bead binding assays)); assay: pull-down; 0.05 nmol bL15Vp on streptavidin-agarose magnetic beads; 0.1 nmol 32P-labeled GF14 in 50 µl buffer HT, 60 min, room temperature; without FC; bound radioactivity counted
T2 construct: 14-3-3 protein GF14 lambda, Arabidopsis, At5g10450; cDNA by RT-PCR with primers corresponding to the coding region; also called GF14 lambda; GST-GF14λ
T2 sequence (looked up): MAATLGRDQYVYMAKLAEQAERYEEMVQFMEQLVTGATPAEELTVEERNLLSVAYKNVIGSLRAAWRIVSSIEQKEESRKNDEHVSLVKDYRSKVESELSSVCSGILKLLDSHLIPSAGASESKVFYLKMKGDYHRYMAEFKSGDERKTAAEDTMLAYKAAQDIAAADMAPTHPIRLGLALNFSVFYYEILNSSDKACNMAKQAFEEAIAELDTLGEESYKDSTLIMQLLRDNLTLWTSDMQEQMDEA

GF14χ = target: T3, GF14χ (Arabidopsis, UniProt P42643 1-267, 32P-phosphate on the phosphorylation site at the junction between GST and the cloned protein (overlay and bead binding assays)); assay: as above
T3 construct: 14-3-3 protein GF14 chi, Arabidopsis, At4g09000; cDNA by RT-PCR with primers corresponding to the coding region; also called GF14 chi; GST-GF14χ
T3 sequence (looked up): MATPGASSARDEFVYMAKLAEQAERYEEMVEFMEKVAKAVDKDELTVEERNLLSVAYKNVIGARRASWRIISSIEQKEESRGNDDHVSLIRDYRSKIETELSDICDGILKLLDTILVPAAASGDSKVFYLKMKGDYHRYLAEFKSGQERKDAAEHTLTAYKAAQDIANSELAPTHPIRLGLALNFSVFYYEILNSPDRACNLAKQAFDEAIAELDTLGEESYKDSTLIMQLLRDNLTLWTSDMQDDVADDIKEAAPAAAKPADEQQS

GF14κ = target: T4, GF14κ (Arabidopsis, UniProt P48348 1-248, 32P-phosphate on the phosphorylation site at the junction between GST and the cloned protein (overlay and bead binding assays)); assay: as above
T4 construct: 14-3-3 protein GF14 kappa, Arabidopsis, At5g65430; cDNA by RT-PCR with primers corresponding to the coding region; also called GF14 kappa; GST-GF14κ
T4 sequence (looked up): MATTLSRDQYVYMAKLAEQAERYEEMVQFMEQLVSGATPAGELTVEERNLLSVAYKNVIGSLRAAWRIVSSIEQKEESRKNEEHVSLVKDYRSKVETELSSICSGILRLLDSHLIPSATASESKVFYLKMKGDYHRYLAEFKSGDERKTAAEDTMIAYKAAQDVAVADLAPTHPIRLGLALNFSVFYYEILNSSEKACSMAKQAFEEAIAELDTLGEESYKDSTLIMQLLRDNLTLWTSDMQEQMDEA

GF14εN211G = target: B2; assay: pull-down; bL15Vp on streptavidin-agarose magnetic beads; 0.1 nmol 32P-labeled GF14 wild type or loop 8 mutant in buffer HT without Mg2+; FC not told for this experiment
bL15Vp peptide = target: B1; assay: pull-down; bL15Vp on streptavidin-agarose magnetic beads; 0.1 nmol 32P-labeled GF14 wild type or loop 8 mutant in buffer HT with 5 mM Mg2+; FC not told for this experiment

binding result (GF14ωG213N) | binding result (GF14λ) | binding result (GF14χ) | binding result (GF14κ) | binding result (GF14εN211G) | fold more protein bound with 5 mM Mg2+ (reference not clear: wild type GF14ε or the mutant without Mg2+) (bL15Vp peptide) [fold] | Binder
binds | binds | binds | binds | binds |  | B1
 |  |  |  |  | > 5 | B2
